{
  "source": "the nanobody polyreactivity screen of Harvey et al. (2022)",
  "data": [
    {"test": "yeast display, Sf9 membrane polyspecificity reagent, FACS + sequencing; frameworks hold sequencing errors", "in_short": "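A synthetic nanobody library was expressed on Saccharomyces cerevisiae BJ5465 by galactose induction for 36–48 hours. The library was stained for 1 hour at 4 °C with 10% biotinylated, detergent-solubilized Sf9 membrane reagent and enriched with streptavidin microbeads before FACS. Low and high (top ~1%) gates were set on anti-HA fluorescence for expression and streptavidin fluorescence for reagent binding, and each polyreactivity label reflects the gate of origin.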", "values": [
      {"sequence": "QVQLVESGGGLVQAGGSLRLSCAASGSTFYYNTMGWYRQAPGKERELVAAISWRGGSTYYADSVKGRYTISRDNAKNTVYLQMNSLKPEDTAVYYCAALTYYGSDYWGQGTQVTVSS", "polyreactivity (PSR sort gate)": "high polyreactivity"},
      {"sequence": "QVQLVESGGGLVQAGGSLRLSCAASGSTFYYNVMGSYRQAPGKERELVAAITLSGGSTYADSVKGRFTISRDNAKKTVYLQINSLKPEDTAVYYCAKKGRYGRWGYKFDYWGQGTQVTVSS", "polyreactivity (PSR sort gate)": "low polyreactivity"},
      {"sequence": "QVQLVESGGGLVQAGGSLRLSCAASGSTFYYYAMGCYRQAPGKERELVAAINSSGGNTYYADSVKGRFTISRDNAKNTVYLQMNCLKPEDTAVYYCATEYYWLQDYDYWGQGTQVTVSS", "polyreactivity (PSR sort gate)": "low polyreactivity"},
      {"sequence": "QVQLVESGGGLVQAGGSLRLSCAASGSTFYYYAMGGYRQAPGKERELVAAINDAGGTNYADSVKGRFTISRDNAKNTVYLQMNSLKPEDTAVYYCAADGRIYLTYHEMEYWGQVTQVTVSS", "polyreactivity (PSR sort gate)": "low polyreactivity"},
      {"sequence": "QVQLVESGGGLVQAGGSLRLSCAASGSTFYYYAMGWYRQAPGKEREFVAAISSSTGSTYYADSVKGRFTISRDNAKNTVYLQMNSLKPEDTAVYYCNALTWYTSQDYDYWGQGTQVTVSS", "polyreactivity (PSR sort gate)": "high polyreactivity"},
      {"sequence": "QVQLVESGGGLVQAGGSLRLSCAASGSTFYYYAMGWYRQAPGKERELVAAIDRDDRTNYADSVKGRFTISRDNAKNTVYLQMNSLKPEDTAVYNSAADSSERRLLDFDYWGQGTQVTVSS", "polyreactivity (PSR sort gate)": "low polyreactivity"},
      {"sequence": "QVQLVESGGGLVQAGGSLRLSCAASGSTFYYYAMGWYRQAPGKERELVAAIDWSGESTYYADSVKGRFTISRDKAKKTVYLQMHSLKPEDTAVYYCAADLGYPWGYVLFYKQSISYYYWGQGTQVTVSS", "polyreactivity (PSR sort gate)": "low polyreactivity"},
      {"sequence": "QVQLVESGGGLVQAGGSLRLSCAASGSTFYYYAMGWYRQAPGKERELVAAISNRDGRTYYADSVKGRFTISRDNAKNTVYLQMNSLKPEDTAVYYCNAYSYGHYYWGQGTQVTVSS", "polyreactivity (PSR sort gate)": "high polyreactivity"},
      {"sequence": "QVQLVESGGGLVQAGGSLRLSCAASGSTFYYYAMGWYRQAPGKERELVAAITKSGGSTYYADSVKGRFTISRDNAKNTVYLQMNSLKPEDTAVYYCAAYLRSGYKFDYWGQGTQVTVSS", "polyreactivity (PSR sort gate)": "low polyreactivity"},
      {"sequence": "QVQLVESGGGLVQAGGSLRLSCAASGSTFYYYAMGWYRQAPGKERELVAAITKSRGSTYYADSVKGRFTISRDNAKNTVYLQMNSLKPEDTAVYDCAAYLRSGYKFDYWGQGTQGTVSS", "polyreactivity (PSR sort gate)": "low polyreactivity"},
      {"sequence": "QVQLVESGGGLVQAGGSLRLSCAASGSTFYYYAMGWYRQAPGKERELVASINYSAGRTYYADSVKGRFTISRDNAKNTVYLQMNSLKPEDTAVYYCATGYPYHVNRYYYWGQGTQVTVSS", "polyreactivity (PSR sort gate)": "high polyreactivity"},
      {"sequence": "QVQLVESGGGLVQAGGSLRLSCAASGSTFYYYAMGWYRQAPGKERELVATISRSTARTFYADSVKGRFTISRDNAKNTVYLQMNSLKPEDTAVYYCAATSYVSVYPSYYRFGTYGYWGQGTQVTVSS", "polyreactivity (PSR sort gate)": "high polyreactivity"},
      {"sequence": "QVQLVESGGGLVQAGGSLRLSCAASGSTFYYYAMGWYRQAPGKERELVATISSGSSTNYADSVKGRFTISRDNAKNTVYLQMNSLKPEDTAVYYCATDGDPAYPEMEYWGQGTQVTVSS", "polyreactivity (PSR sort gate)": "low polyreactivity"},
      {"sequence": "QVQLVESGGGLVQAGGSLRLSCAASGSTFYYYGMGWYRQAPGKERELVAAINWSGGTTYYADSVKGRFTISRDNAKNTVYLQMNSLKPEDTAVYYCATEHNHLGYYYWGQGTQVTVSS", "polyreactivity (PSR sort gate)": "low polyreactivity"},
      {"sequence": "QVQLVESGGGLVQAGGSLRLSCAASGSTFYYYTMGWYRQAPGKERELVATITYRSGNTYYADSVKGRFTISRDNAKNTVYLQMNSLKPEDTAVYYCAALRRVLPYKRYDYWGQGTQVTVSS", "polyreactivity (PSR sort gate)": "high polyreactivity"},
      {"sequence": "QVQLVESGGGLVQAGGSLRLSCAASGSTFYYYTMGWYRQAPGKERELVDISWDGDSTYSADSVKGRFTISRDNAKNTVYLQMNSLKPEDTAVYYCAAADYYLPDDVSDYVDANFDYWGQGTQVTVSS", "polyreactivity (PSR sort gate)": "low polyreactivity"},
      {"sequence": "QVQLVESGGGLVQAGGSLRLSCAASGSTGGYAMGWYRQAPGKERELVARISYSGGSTYYADSVKGRFTISRDNAKNTVYLQMNSLKPEDTAVYYCAARILYRYYYWGQGTQVTVSS", "polyreactivity (PSR sort gate)": "high polyreactivity"},
      {"sequence": "QVQLVESGGGLVQAGGSLRLSCAASGSTHGYAMGWYRQAPGKERELVAAISLNTGSTYYADSVKGRFTIARDNAKNTVYFQMNSLKPEYTAVYYCNADDYTYATYEYDYWGQGTLVTVSS", "polyreactivity (PSR sort gate)": "low polyreactivity"},
      {"sequence": "QVQLVESGGGLVQAGGSLRLSCAASGSTIAYYAMGWYRQAPGKERELVAAISKRGGSTYYADSVKGRFTISRDNAKNTVYLQMNSLKPEDTAGYYCATGRSTDKGYYFWGQGTQVTVSS", "polyreactivity (PSR sort gate)": "high polyreactivity"},
      {"sequence": "QVQLVESGGGLVQAGGSLRLSCAASGSTIDGYAMGWYRQAPGKEREFVAAISFSSASTYYADSVKGRFTISRDNAKNTVYLQMNSLKPEDTAVYYCNADFFDSGGSIEYDSWGQGSQVTVSS", "polyreactivity (PSR sort gate)": "low polyreactivity"},
      {"sequence": "QVQLVESGGGLVQAGGSLRLSCAASGSTIDYYAMGWYRQAPGKERELVAAIDWSGDSTYYADSVKGRFTISRDNAKNTVYLQMNSLKPEDTAVYYCAADLDSRGTYGRYEYWGQGTQVTVSS", "polyreactivity (PSR sort gate)": "low polyreactivity"},
      {"sequence": "QVQLVESGGGLVQAGGSLRLSCAASGSTIFPYAMGWYRQAPGKERELVAAITSGGNTNYADSVKGRFTISRDNAKNTVYLQMNSLKPEDTAVYYCAADYFWHYRKYDYWGQGTQVTVSS", "polyreactivity (PSR sort gate)": "low polyreactivity"},
      {"sequence": "QVQLVESGGGLVQAGGSLRLSCAASGSTIGANAMGWSRQAPGKERELVAAISLSGGTSYADSVKGRFTISRDNAKNTVYLQMNSLKPEDTAVYYCAAPGRGWFDWYAHYYWGQGTQVTVSS", "polyreactivity (PSR sort gate)": "low polyreactivity"},
      {"sequence": "QVQLVESGGGLVQAGGSLRLSCAASGSTIGAYAMGWYRPAPGKERELVAAISRRGGSTYYADSVKGRFTISRDNAKNTVYLQMNSLKPEDSAVYYCNAVGTRVDGEHYYWGQGTQVTVSS", "polyreactivity (PSR sort gate)": "high polyreactivity"},
      {"sequence": "QVQLVESGGGLVQAGGSLRLSCAASGSTIGFYAMGWYRQAPGKERELVAVISSGDSTYYADSVKGRFTISRDNAKNTVYLQMNSLKPEDTAVYYCAKDALVIDGGGGYDYWGQGTQVTVSS", "polyreactivity (PSR sort gate)": "low polyreactivity"},
      {"sequence": "QVQLVESGGGLVQAGGSLRLSCAASGSTIGLNARGWYRQAPGKERELVAAITRSDITNYADSVKGRFTISRDNAKNTVYLQMNRLKPEDTEVYYCAAESPLYWVDDFESGWRYYYSGQGTQVTVSS", "polyreactivity (PSR sort gate)": "low polyreactivity"},
      {"sequence": "QVQLVESGGGLVQAGGSLRLSCAASGSTIGRYAMGWYRQAPGKERELVAAISSSGDRTYYADSVKGRFTISRDNAKNTVYLQMNSLKPEDTAVYYCNSRRLFSGYDYWGQGTQVTVSS", "polyreactivity (PSR sort gate)": "high polyreactivity"},
      {"sequence": "QVQLVESGGGLVQAGGSLRLSCAASGSTIGWNAMGWYRQAPRKERELVAAISSSGGITYYADSVKGRYTISRDTAKNTVYLQMNSLKPDDTAVYDCAAEGDDDWVNYWGHGTQVTVSS", "polyreactivity (PSR sort gate)": "low polyreactivity"},
      {"sequence": "QVQLVESGGGLVQAGGSLRLSCAASGSTIGYYAMGWYRPAPGKERELVAAISWSGGSTYYADSVKGRFTISRDTAKNTVYFQMNSLKPEDTAGYYCAADTYPDYYLVEYYYWGQGTQVTVSS", "polyreactivity (PSR sort gate)": "low polyreactivity"},
      {"sequence": "QVQLVESGGGLVQAGGSLRLSCAASGSTIGYYARGWSRQAPGKERELVARIRSTGVSTFYADSVKGRFTISRDNAKNTVYLQMNSLKPEDTAVYYCAAPVSSLGWKHRQYTTWYEYWGQGTQVTVSS", "polyreactivity (PSR sort gate)": "high polyreactivity"},
      {"sequence": "QVQLVESGGGLVQAGGSLRLSCAASGSTIINYAMGWYRQAPGKERELVAVITSDDGSTYYADSVKGRFTISRDNAKNTVYLQMNSLKPEDTAVYYCAADYYDQRYRPGPWYDYWGQGSQVTVSS", "polyreactivity (PSR sort gate)": "low polyreactivity"},
      {"sequence": "QVQLVESGGGLVQAGGSLRLSCAASGSTIIYYAMGWYRQAPGKESELVATISTSGTSTYYADSVKGRFTISRDNAKNTVYLQMNSLKPEDTAVYYCNAVHRNWRQKFDYWGQGTQVTVSS", "polyreactivity (PSR sort gate)": "high polyreactivity"},
      {"sequence": "QVQLVESGGGLVQAGGSLRLSCAASGSTINYYAMGWYIQAPGKERELVARITWSGARTYYADSVKGRFTISRDNAKNTVYLQMNSLKPEDTAVYYCAAGYLALESPWYYRWYDYWGQGTQVTVSS", "polyreactivity (PSR sort gate)": "low polyreactivity"},
      {"sequence": "QVQLVESGGGLVQAGGSLRLSCAASGSTIQLYAMGWYRQAPGKERELVAAITSSAGRTYYADSVKGRFTISRDNAKNTVYLQMNSLKPEDTAVYYCAKDGSFTFWGQGTQVTVSS", "polyreactivity (PSR sort gate)": "low polyreactivity"},
      {"sequence": "QVQLVESGGGLVQAGGSLRLSCAASGSTIRAYGMGWYRQAPGKERELVAAISYSGDSTYYADSVKGRFTISRDNAKNTVYLQMNSLKPEDTAVYYCDADYSYRHYEYDYWGQGTQVTVSS", "polyreactivity (PSR sort gate)": "low polyreactivity"},
      {"sequence": "QVQLVESGGGLVQAGGSLRLSCAASGSTIRKNALGWSRQAPGKEREWVADIRRGGGTNYADSVKGRFTISRDNAKNTVYLQMNSLKPEDTAVYSCNTDILYYGRSKAPFYYCGQGTQVTVSS", "polyreactivity (PSR sort gate)": "high polyreactivity"},
      {"sequence": "QVQLVESGGGLVQAGGSLRLSCAASGSTIRSNAMGWYRQAPGKERELVAAITSGGSTYYAESVKGRFTISRDNAKNTVYLQMNSLKPEDTAVYYCAVRYYRRRYDYWGQGTQVTVSS", "polyreactivity (PSR sort gate)": "low polyreactivity"},
      {"sequence": "QVQLVESGGGLVQAGGSLRLSCAASGSTIRSYAMGWYRQATRKERELVARIAYSSGRTYYADSVKGRFTISRDNAKNTVYLQMNSLKPEDTAVYYCAVRGYGYGYDYWGQGTQVTVSS", "polyreactivity (PSR sort gate)": "high polyreactivity"},
      {"sequence": "QVQLVESGGGLVQAGGSLRLSCAASGSTISFYAMGWYRQAPGKERELVAAISFRGGRTYYADSVKGRFTISRDNAKNTVYLQMYSLKPEDTAVYYCAAVWYYGHARYDYWGQGTQVTVSS", "polyreactivity (PSR sort gate)": "high polyreactivity"},
      {"sequence": "QVQLVESGGGLVQAGGSLRLSCAASGSTISFYAMGWYRQAPGKERELVAAISRSGGSTFYADSVKGRFTISRDNAKNTVYLQMNSLKPEDTAVYYCAAYGGMQSRYYYWGQGTQVTVSS", "polyreactivity (PSR sort gate)": "high polyreactivity"},
      {"sequence": "QVQLVESGGGLVQAGGSLRLSCAASGSTISPYAMGWYRQAPGKEREFVAAISRSGGSTYYADSVKVRFTISRDNAKNTVYLQMNSLKPEDTAVYYCARRYARITPVYPPLNYWGQGTQVTVSS", "polyreactivity (PSR sort gate)": "high polyreactivity"},
      {"sequence": "QVQLVESGGGLVQAGGSLRLSCAASGSTISRNAMGWYRQAPGKERELVAAITSKGDSTYYADSVKGRFTISRDNAKNTVYLQMNSLKPEDTAVYYCAAVRRGYKYDYWGQGTQVTVSS", "polyreactivity (PSR sort gate)": "low polyreactivity"},
      {"sequence": "QVQLVESGGGLVQAGGSLRLSCAASGSTISRYAMGWYRHAPGKERELVAAISWNGGDTYYADSVKGRFTISRDYAKNTVFLQMNSLKPEDTAVYYCNTPRRITRAGYWAGSRYNYWGQGTQVTVSS", "polyreactivity (PSR sort gate)": "high polyreactivity"}
    ]}
  ]
}
